Source: US20160108115 (published 2016)
Read-outs that look alike come from different tables or passages of the source.

T1: FcγRIIa (human, UniProt P12318)
T1 chain: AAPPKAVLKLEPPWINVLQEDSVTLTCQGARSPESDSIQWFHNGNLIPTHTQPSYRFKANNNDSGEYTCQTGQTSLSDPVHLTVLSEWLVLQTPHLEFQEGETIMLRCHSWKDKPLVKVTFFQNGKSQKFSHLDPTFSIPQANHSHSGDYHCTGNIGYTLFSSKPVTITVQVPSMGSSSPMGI

T2: FcγRIIb/c (human, UniProt P31994)
T2 chain: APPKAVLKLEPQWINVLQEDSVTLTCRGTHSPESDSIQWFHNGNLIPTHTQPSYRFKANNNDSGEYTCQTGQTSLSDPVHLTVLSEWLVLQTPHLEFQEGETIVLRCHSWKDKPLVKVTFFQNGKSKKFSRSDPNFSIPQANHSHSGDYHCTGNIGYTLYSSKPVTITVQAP

T3: mouse C5 (mouse, UniProt P06684)
T3 chain 1: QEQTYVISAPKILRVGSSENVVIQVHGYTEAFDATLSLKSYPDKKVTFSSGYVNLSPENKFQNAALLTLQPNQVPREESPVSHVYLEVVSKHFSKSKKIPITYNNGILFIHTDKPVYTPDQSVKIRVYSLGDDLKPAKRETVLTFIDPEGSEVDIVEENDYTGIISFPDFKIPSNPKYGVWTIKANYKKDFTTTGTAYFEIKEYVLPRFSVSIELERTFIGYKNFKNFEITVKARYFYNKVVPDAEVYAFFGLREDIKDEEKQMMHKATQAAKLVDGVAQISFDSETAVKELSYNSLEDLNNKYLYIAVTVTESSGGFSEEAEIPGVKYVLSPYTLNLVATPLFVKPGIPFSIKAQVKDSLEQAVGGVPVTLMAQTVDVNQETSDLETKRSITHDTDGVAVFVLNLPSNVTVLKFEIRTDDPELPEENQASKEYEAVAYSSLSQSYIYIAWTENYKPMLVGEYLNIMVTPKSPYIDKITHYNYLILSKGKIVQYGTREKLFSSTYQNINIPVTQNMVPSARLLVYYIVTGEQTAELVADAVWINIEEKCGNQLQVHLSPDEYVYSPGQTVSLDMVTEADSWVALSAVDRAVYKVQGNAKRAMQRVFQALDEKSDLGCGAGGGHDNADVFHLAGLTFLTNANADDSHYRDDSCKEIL
T3 chain 2: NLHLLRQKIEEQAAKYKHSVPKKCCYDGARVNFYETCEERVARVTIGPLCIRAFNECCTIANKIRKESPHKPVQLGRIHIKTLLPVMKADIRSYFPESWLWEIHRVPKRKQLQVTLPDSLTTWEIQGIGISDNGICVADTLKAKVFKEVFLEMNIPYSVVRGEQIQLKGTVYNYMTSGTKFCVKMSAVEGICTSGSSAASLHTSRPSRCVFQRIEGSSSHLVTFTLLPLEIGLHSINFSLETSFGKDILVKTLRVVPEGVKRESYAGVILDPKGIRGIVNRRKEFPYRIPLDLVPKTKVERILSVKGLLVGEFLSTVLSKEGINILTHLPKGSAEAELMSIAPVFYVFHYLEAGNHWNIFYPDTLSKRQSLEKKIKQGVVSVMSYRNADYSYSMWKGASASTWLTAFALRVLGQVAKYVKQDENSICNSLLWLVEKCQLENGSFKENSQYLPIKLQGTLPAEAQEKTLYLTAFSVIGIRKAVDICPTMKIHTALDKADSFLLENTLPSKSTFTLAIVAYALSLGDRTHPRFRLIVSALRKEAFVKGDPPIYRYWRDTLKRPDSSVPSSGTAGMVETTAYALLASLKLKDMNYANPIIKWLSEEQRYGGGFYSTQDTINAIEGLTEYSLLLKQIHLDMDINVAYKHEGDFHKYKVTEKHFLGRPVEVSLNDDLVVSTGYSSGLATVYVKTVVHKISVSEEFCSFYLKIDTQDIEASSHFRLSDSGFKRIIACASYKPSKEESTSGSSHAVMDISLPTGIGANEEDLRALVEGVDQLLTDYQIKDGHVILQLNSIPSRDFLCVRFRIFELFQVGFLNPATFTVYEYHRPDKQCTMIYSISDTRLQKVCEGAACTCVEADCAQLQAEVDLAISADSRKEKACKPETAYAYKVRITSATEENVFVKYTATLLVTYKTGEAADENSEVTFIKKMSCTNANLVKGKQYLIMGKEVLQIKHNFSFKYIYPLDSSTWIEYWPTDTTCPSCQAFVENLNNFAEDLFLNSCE


What was measured:
human C5 [1] = molecular target: T4, human C5 (human, UniProt P01031); assay: SPR
human C5 [2] = molecular target: T4, human C5; assay: SPR; remark: listed apart in the source
FcγRIIa = molecular target: T1, FcγRIIa; assay: SPR, pH 7.4
FcγRIIb/c = molecular target: T2, FcγRIIb/c; assay: SPR, pH 7.4
mouse C5 [3] = molecular target: T3, mouse C5; assay: SPR, pH 7.4
mouse C5 [4] = molecular target: T3, mouse C5; assay: SPR, pH 6.0
mouse C5 [5] = molecular target: T3, mouse C5; assay: SPR, pH 6.0

Row | Kd (human C5 [2]) [nM] | Kd (mouse C5 [3]) [nM] | binding result (mouse C5 [5]) | Binder | further results
1 | 0.135 |  |  | EHL004 (antibody, V domains shown) VH: QVQLVQSGAEVKKPGASVKVSCKASGYIFSNYWIQWVRQAPGQGLEWMGEILPGSGHTEYTENFKDRVTMTRDTSTSTVYMELSSLRSEDTAVYYCARYFFGSSPNWYFDVWGQGTLVTVSS VL: DIQMTQSPSSLSASVGDRVTITCGASENIYHALNWYQQKPGKAPKLLIYGATNLADGVPSRFSGSGSGTDFTLTISSLQPEDFATYYCQNVLNTPLTFGQGTKVEIK | Kd (human C5 [1]): 374 nM
2 | 1.15 |  |  | EHL046 (antibody, V domains shown) VH: QVQLVQSGAEVKKPGASVKVSCKASGHIFSNYWIQWVRQAPGQGLEWMGEIHPGSGSTEYTENFKDRVTMTRDTSTSTVYMELSSLRSEDTAVYYCARYFFGSSPNWYFDVWGQGTLVTVSS VL: DIQMTQSPSSLSASVGDRVTITCGASENIYHALNWYQQKPGKAPKLLIYGATNLADGVPSRFSGSGSGTDFTLTISSLQPEDFATYYCQNVLNTPLTFGQGTKVEIK | 
3 |  |  |  | eculizumab (full length) (antibody) chain 1: QVQLVQSGAEVKKPGASVKVSCKASGYIFSNYWIQWVRQAPGQGLEWMGEILPGSGSTEYTENFKDRVTMTRDTSTSTVYMELSSLRSEDTAVYYCARYFFGSSPNWYFDVWGQGTLVTVSSASTKGPSVFPLAPCSRSTSESTAALGCLVKDYFPEPVTVSWNSGALTSGVHTFPAVLQSSGLYSLSSVVTVPSSNFGTQTYTCNVDHKPSNTKVDKTVERKCCVECPPCPAPPVAGPSVFLFPPKPKDTLMISRTPEVTCVVVDVSQEDPEVQFNWYVDGVEVHNAKTKPREEQFNSTYRVVSVLTVLHQDWLNGKEYKCKVSNKGLPSSIEKTISKAKGQPREPQVYTLPPSQEEMTKNQVSLTCLVKGFYPSDIAVEWESNGQPENNYKTTPPVLDSDGSFFLYSRLTVDKSRWQEGNVFSCSVMHEALHNHYTQKSLSLSLGK chain 2: DIQMTQSPSSLSASVGDRVTITCGASENIYGALNWYQQKPGKAPKLLIYGATNLADGVPSRFSGSGSGTDFTLTISSLQPEDFATYYCQNVLNTPLTFGQGTKVEIKRTVAAPSVFIFPPSDEQLKSGTASVVCLLNNFYPREAKVQWKVDNALQSGNSQESVTEQDSKDSTYSLSSTLTLSKADYEKHKVYACEVTHQGLSSPVTKSFNRGEC | Kd (FcγRIIa): 2580 nM; Kd (FcγRIIb/c): 9840 nM
4 |  | 0.0952 |  | BHL011 (antibody, V domains shown) VH: QVQLQQPGAELVRPGTSVKLSCKASGYTFTSSWMHWVKQRPGQGLEWIGVIDPSDSYTNYNQKFKGKATLTVDTSSSTAYMQLSSLTSEDSAVYYCARGGGSSYNRYFDVWGTGTTVTVSS VL: NIMMTQSPSSLAVSAGEKVTMSCKSSQSVLYSSNQKNYLAWYQQKPGQSPKLLIYWASTRESGVPDRFTGSGSGTDFTLTISSVQAEDLAVYYCAQYLSSRTFGGGTKLEIKR | Kd (mouse C5 [4]): 53.6 nM
5 |  | 4.19 | no binding | BHL009 (antibody) chain 1: QVQLQQPGAELVRPGTSVKLSCKASGYTFTSSWMHWVKQRPGQGLEWIGVIDPHDSYTNYNQKFKGKATLTVDTSSSTAYMQLSSLTSEDSAVYYCARGGGSSYNRYFDVWGTGTTVTVSSASTKGPSVFPLAPCSRSTSESTAALGCLVKDYFPEPVTVSWNSGALTSGVHTFPAVLQSSGLYSLSSVVTVPSSNFGTQTYTCNVDHKPSNTKVDKTVERKCCVECPPCPAPPVAGPSVFLFPPKPKDTLMISRTPEVTCVVVDVSQEDPEVQFNWYVDGVEVHNAKTKPREEQFNSTYRVVSVLTVLHQDWLNGKEYKCKVSNKGLPSSIEKTISKAKGQPREPQVYTLPPSQEEMTKNQVSLTCLVKGFYPSDIAVEWESNGQPENNYKTTPPVLDSDGSFFLYSRLTVDKSRWQEGNVFSCSVLHEALHSHYTQKSLSLSLGK chain 2: not shown | 
6 |  | 3.49 | no binding | BHL006 (antibody) chain 1: QVQLQQPGAELVRPGTSVKLSCKASGYTFTSSWMHWVKQRPGQGLEWIGVIDPHDSYTNYNQKFKGKATLTVDTSSSTAYMQLSSLTSEDSAVYYCARGGGSSYNRYFDVWGTGTTVTVSSASTKGPSVFPLAPCSRSTSESTAALGCLVKDYFPEPVTVSWNSGALTSGVHTFPAVLQSSGLYSLSSVVTVPSSNFGTQTYTCNVDHKPSNTKVDKTVERKCCVECPPCPAPPVAGPSVFLFPPKPKDTLMISRTPEVTCVVVDVSQEDPEVQFNWYVDGVEVHNAKTKPREEQFNSTYRVVSVLTVLHQDWLNGKEYKCKVSNKGLPSSIEKTISKAKGQPREPQVYTLPPSQEEMTKNQVSLTCLVKGFYPSDIAVEWESNGQPENNYKTTPPVLDSDGSFFLYSRLTVDKSRWQEGNVFSCSVMHEALHNHYTQKSLSLSLGK chain 2: not shown | 
